The source of these data is publication PMC6086658, “Unified mechanisms for self-RNA recognition by RIG-I Singleton-Merten syndrome variants” (eLife, 2018).

In data set [1] the target is T1, RIG-I Δ2CARD C268F (human, UniProt O95786 232-925, C268F).
T1 sequence: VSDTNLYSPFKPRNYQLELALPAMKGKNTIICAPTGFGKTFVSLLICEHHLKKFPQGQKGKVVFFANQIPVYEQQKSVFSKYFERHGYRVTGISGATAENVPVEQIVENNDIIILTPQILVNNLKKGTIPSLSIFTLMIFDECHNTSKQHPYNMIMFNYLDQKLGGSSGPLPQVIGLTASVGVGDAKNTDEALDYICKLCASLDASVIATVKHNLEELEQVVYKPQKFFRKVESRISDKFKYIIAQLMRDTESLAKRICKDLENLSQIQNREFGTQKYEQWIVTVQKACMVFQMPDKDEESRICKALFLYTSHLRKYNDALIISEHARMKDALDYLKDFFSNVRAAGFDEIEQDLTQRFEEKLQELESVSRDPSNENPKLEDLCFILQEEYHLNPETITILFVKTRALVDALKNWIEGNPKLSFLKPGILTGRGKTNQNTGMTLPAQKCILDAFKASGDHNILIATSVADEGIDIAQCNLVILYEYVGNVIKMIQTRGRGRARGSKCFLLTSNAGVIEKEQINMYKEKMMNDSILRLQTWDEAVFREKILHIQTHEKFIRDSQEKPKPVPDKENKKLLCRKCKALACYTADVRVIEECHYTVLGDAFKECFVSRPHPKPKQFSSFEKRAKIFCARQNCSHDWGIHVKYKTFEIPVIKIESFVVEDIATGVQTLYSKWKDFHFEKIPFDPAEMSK
The data set is described as follows: crystal structure; co-crystallized with ADP-BeFx or ATP; no nucleotide bound in structure; Fluorescence anisotropy: 25 mM HEPES pH 7, 50 mM KCl, 5 mM MgCl2, 1 mM DTT, +/- 5 mM ATP, 10 nM RNA, room temperature. The conditions noted are these: protein: recombinant; tags: N-terminal His-tag (insect cells) or His-SUMO3 cleaved off (E. coli); blunt, palindromic self-duplex. Background: Fluorescence polarisation rises when a labelled molecule tumbles more slowly, as on binding a larger partner.

The target in data set [2] is T2, RIG-I wild type (human, UniProt O95786 1-925).
T2 sequence: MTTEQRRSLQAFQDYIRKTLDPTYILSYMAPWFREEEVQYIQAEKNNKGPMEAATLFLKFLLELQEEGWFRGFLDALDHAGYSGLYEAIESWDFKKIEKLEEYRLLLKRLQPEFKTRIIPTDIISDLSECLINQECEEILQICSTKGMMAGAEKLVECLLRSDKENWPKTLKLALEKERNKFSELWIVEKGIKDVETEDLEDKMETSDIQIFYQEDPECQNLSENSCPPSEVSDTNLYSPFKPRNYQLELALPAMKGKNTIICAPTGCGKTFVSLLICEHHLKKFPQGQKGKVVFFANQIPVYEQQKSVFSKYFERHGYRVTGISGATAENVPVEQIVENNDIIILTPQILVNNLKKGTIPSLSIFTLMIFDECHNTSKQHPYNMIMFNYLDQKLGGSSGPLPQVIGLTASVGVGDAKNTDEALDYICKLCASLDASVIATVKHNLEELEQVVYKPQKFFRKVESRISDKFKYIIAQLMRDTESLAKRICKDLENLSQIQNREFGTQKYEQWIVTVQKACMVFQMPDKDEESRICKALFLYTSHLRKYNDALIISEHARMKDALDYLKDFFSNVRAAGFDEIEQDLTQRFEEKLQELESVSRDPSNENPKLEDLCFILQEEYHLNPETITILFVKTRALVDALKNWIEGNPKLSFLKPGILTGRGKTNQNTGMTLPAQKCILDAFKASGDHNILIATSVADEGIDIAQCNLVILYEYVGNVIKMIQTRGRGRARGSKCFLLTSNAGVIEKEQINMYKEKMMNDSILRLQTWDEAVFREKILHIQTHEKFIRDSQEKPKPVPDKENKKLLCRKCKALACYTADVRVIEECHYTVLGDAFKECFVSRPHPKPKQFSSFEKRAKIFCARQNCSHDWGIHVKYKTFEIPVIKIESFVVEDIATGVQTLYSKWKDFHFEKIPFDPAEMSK
The data set is described as follows: fluorescence anisotropy; no ATP, 5 mM Mg2+; Fluorescence anisotropy: 25 mM HEPES pH 7, 50 mM KCl, 5 mM MgCl2, 1 mM DTT, +/- 5 mM ATP, 10 nM RNA, room temperature. Conditions: protein: recombinant; tags: N-terminal His-tag; label: 5'-Cy3; hairpin with non-base-paired ends.

Data set [3] concerns the target T3, RIG-I C268F (human, UniProt O95786 1-925, C268F).
T3 sequence: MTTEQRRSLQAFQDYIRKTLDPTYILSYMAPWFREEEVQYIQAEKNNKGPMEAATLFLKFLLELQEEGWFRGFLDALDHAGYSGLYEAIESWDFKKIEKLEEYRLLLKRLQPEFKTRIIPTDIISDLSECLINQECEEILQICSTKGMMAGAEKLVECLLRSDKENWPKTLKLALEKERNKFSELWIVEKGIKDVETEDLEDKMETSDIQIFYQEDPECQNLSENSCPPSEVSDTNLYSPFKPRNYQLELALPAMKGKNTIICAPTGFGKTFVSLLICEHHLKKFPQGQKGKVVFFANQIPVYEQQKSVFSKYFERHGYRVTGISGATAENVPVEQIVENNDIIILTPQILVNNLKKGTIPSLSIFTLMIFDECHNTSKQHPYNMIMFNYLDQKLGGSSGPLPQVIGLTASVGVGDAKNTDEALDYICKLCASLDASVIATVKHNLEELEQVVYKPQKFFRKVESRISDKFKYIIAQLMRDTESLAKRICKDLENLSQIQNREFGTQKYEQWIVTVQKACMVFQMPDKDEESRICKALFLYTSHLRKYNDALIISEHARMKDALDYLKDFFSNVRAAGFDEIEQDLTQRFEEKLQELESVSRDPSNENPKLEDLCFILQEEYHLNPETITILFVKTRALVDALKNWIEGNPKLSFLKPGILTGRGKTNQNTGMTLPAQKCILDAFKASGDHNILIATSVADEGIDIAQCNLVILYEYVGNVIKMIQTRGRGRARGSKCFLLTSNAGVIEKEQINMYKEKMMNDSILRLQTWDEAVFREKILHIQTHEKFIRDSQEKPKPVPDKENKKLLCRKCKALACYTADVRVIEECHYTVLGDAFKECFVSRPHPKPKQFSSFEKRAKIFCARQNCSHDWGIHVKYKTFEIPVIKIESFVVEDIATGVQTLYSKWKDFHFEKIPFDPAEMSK
The description is as above. Conditions: protein: recombinant; tags: N-terminal His-tag; label: 5'-Cy3; hairpin with non-base-paired ends.

B1: 14mer dsRNA (dsRNA)
RNA 1: CGACGCUAGCGUCG
RNA 2: CGACGCUAGCGUCG
B1: the binding result in data set [1] is “binds”. In the case of CCACCCGCCCCCCUAGUGAGGGGGGCGGGCC (structured_RNA) [Cy3-hpRNA (14mer stem hairpin)], the binding result in data set [2] and in data set [3] was “binds” each time.
